Experimental data reported in patent US7803382B2, “Method for inducing immune response to NY-CO-58” (Ludwig Institute for Cancer Research Ltd., priority 2001, dated 2010).

B1: REN-32 (Lamin C): serologically defined colon cancer antigen, protein SEQ ID NO:25 (protein, listed as Homo sapiens)
chain: METPSQRRATRSGAQASSTPLSPTRITRLQEKEDLQELNDRLAVYIDRVRSLETENAGLRLRITESEEVVSREVSGIKAAYEAELGDARKTLDSVAKERARLQLELSKVREEFKELKARNTKKEGDLIAAQARLKDLEALLNSKEAALSTALSEKRTLEGELHDLRGQVAKLEAALGEAKKQLQDEMLRRVDAENRLQTMKEELDFQKNIYSEELRETKRRHETRLVEIDNGKQREFESRLADALQELRAQHEDQVEQYKKELEKTYSAKLDNARQSAERNSNLVGAAHEELQQSRIRIDSLSAQLSQLQKQLAAKEAKLRDLEDSLARERDTSRRLLAEKEREMAEMRARMQQQLDEYQELLDIKLALDMEIHAYRKLLEGEEERLRLSPSPTSQRSRGRASSHSSQTQGGGSVTKKRKLESTESRSSFSQHARTSGRVAVEEVDEEGKFVRLRNKSNEDQSMGNWQIKRQNGDDPLLTYRFPPKFTLKAGQVVTIWAAGAGATHSPPTDLVWKAQNTWGCGNSLRTALINSTGEEVAMRKLVR
B2: CO-94 (seb4D): serologically defined colon cancer antigen, protein SEQ ID NO:17 (protein, listed as Homo sapiens)
chain: RPSLPRALPAAPHERSPARPGSVGGGAPPMLLQPAPCAPSAGFPRPLAAPGAMHLFAEGHHVHQDLRGRPAVPHYRRLAQEVLXGLRRHLRRPWSSPTAXRASPAATAS
modifications: X: residue not identified in the source
B3: CO-45 (Tudor like): serologically defined colon cancer antigen, protein SEQ ID NO:21 (protein, listed as Homo sapiens)
chain: RVKATLSERKIGDSCDKDLPLKFCEFPQKTIMPGFKTTVYVSHINDLSDFYVQLIEDEAEISHLSERLNSVKTRPEYYVGPPLQRGDMICAVFPEDNLWYRAVIKEQQPNDLLSVQFIDYGNVSVVHTNKIGRLDLVNAILPGLCIHCSLQGFEVPDNKNSKKMMHYFSQRTSEAAIRCEFVKFQDRWEVILADEHGIIADDMISRYALSEKSQVELSTQVIKSASSKSVNKSDIDTSVFLNWYNPEKKMIRAYATVIDGPEYFWCQFADTEKLQCLEVEVQTAGEQVADRRNCIPCPYIGDPCIVRYREDGHYYRALITNICEDYLVSVRLVDFGNIEDCVDPKALWAIPSELLSVPMQAFPCCLSGFNISEGLCSQEGNDYFYEIITEDVLEITILEIRRDVCDIPLAIVDLKSKGKSINEKMEKYSKTGIKSALPYENIDSEIKQTLGSYNLDVGLKKLSNKAVQNKIYMEQQTDELAEITEKDVNIIGTKPSNFRDPKTDNICEGFENPCKDKIDTEELEGELECHLVDKAEFDDKYLITGFNTLLPHANETKEILELNSLEVPLSPDDESKEFLELESIELQNSLVVDEEKGELSPVPPNVPLSQECVTKGAMELFTLQLPLSCEAEKQPELELPTAQLPLDDKMDPLSLGVSQKAQESMCTEDMRKSSCVESFDDQRRMSLHLHGADCDPKTQNEMNICEEEFVEYKNRDAISALMPFSLRKKAVMEASTIMVYQIIFQNYRTPTL
B4: CO-9 (HDAC 5): serologically defined colon cancer antigen, protein SEQ ID NO:18 (protein, listed as Homo sapiens)
chain: EFLLSKSKEPTPGGLNHSLPQHPKCWGAHHASLDQSSPPQSGPPGTPPSYKLPLPGPYDSRDDFPLRKTASEPNLKVRSRLKQKVAERRSSPLLRRKDGTVISTFKKRAVEITGAGPGASSVCNSAPGSGPSSPNSSHSTIAENGFTGSVPNIPTEMLPQHRALPLDSSPNQFSLYTSPSLPNISLGLQATVTVTNSHLTASPKLSTQQEAERQALQSLRQGGTLTGKFMSTSSIPGCLLGVALEGDGSPHGHASLLQHVLLLEQARQQSTLIAVPLHGQSPLVTGERVATSMRTVGKLPRHRPLSRTQSSPLPQSPQALQQLVMQQQHQQFLEKQKQQQLQLGKILTKTGELPRQPTTHPEETEEELTEQQEVLLGEGALTMPREGSTESESTQEDLEEEDEEEDGEEEEDCIQVKDEEGESGAEEGPDLEEPGAGYKKLFSDAQPLQPLQVYQAPLSLATVPHQALGRTQSSPAAPGGMKNPPDQPVKHLFTTSVVYDTFMLKHQCMCGNTHVHPEHAGRIQSIWSRLQETGLLSKCERIRGRKATLDEIQTVHSEYHTLLYGTSPLNRQKLDSKKLLGPISQKMYAVLPCGGIGVDSDTVWNEMHSSSAVRMAVGCLLELAFKVAAGELKNGFAIIRPPGHHAEESTAMGFCFFNSVAITAKLLQQKLNVGKVLIVDWDIHHGNGTQQAFYNDPSVLYISLHRYDNGNFFPGSGAPEEVGGGPGVGYNVNVAWTGGVDPPIGDVEYLTAFRTVVMPIAHEFSPDVVLVSAGFDAVEGHLSPLGGYSVTARCFGHLTRQLMTLAGGRVVLALEGGHDLTAICDASEACVSALLSVKLQPLDEAVLQQKPNINAVATLEKVIEIQSKHWSCVQKFAAGLGRSLRGAQAGETEEAEM
B5: MAGE-3: serologically defined colon cancer antigen, protein SEQ ID NO:29 (protein, listed as Homo sapiens)
chain: MPLEQRSQHCKPEEGLEARGEALGLVGAQAPATEEQEAASSSSTLVEVTLGEVPAAESPDPPQSPQGASSLPTTMNYPLWSQSYEDSSNQEEEGPSTFPDLESEFQAALSRKVAELVHFLLLKYRAREPVTKAEMLGSVVGNWQYFFPVIFSKASSSLQLVFGIELMEVDPIGHLYIFATCLGLSYDGLLGDNQIMPKAGLLIIVLAIIAREGDCAPEEKIWEELSVLEVFEGREDSILGDPKKLLTQHFVQENYLEYRQVPGSDPACYEFLWGPRALVETSYVKVLHHMVKISGGPHISYPPLHEWVLREGEE
B6: CO-26 (MNK 1): serologically defined colon cancer antigen, protein SEQ ID NO:27 (protein, listed as Homo sapiens)
chain: HIQKQKHFNEREASRVVRDVAAALDFLHTKGIAHRDLKPENILCESPEKVSPVKICDFDLGSGMKLNNSCTPITTPELTTPCGSAEYMAPEVVEVFTDQATFYDKRCDLWSLGVVLYIMLSGYPPFVGHCGADCGWDRGEVCRVCQNKLFESIQEGKYEFPDKDWAHISSEAKDLISKLLVRDAKQKLSAAQVLQHPWVQGQAPEKGLPTPQVLQRNSSTMDLTLFAAEAIALNRQLSQHEENELAEEPEALADGLCSMKLSPPCKSRLARRRALAQAGRGENRSPPTAL
B7: SSX-2: serologically defined colon cancer antigen, protein SEQ ID NO:28 (protein, listed as Homo sapiens)
chain: MNGDDAFARRPTVGAQIPEKIQKAFDDIAKYFSKEEWEKMKASEKIFYVYMKRKYEAMTKLGFKATLPPFMCNKRAEDFQGNDLDNDPNRGNQVERPQMTFGRLQGISPKIMPKKPAEEGNDSEEVPEASGPQNDGKELCPPGKPTTSEKIHERSGPKRGEHAWTHRLRERKQLVIYEEISDPEEDDE
B8: CO-42 (TRIP4): serologically defined colon cancer antigen, protein SEQ ID NO:22 (protein, listed as Homo sapiens)
chain: AEVKTPFDLAKAQENSNSVKKKTKFVNLYTRERQDRLAVLLPGRHPCDCLGQKHKLINNCLICGRIVCEQEGSGPCLFCGTLVCTHEEQDILQRDSNKSQKLLKKLMSGVENSGKVDISTKDLLPHQELRIKSGLEKAIKHKDKLLEFDRTSIRRTQVIDDESDYFASDSNQWLSKLERETLQKREEELRELRHASRLSKKVTIDFAGRKILEEENSLAEYHSRLDETIQAIANGTLNQPLTKLDRSSEEPLGVLVNPNMYQSPPQWLTTQVQPHRRRLSVLQDLD
B9: CO-41 (MBD2): serologically defined colon cancer antigen, protein SEQ ID NO:23 (protein, listed as Homo sapiens)
chain: PSKLQKNKQRLRNDPLNQNKGKPDLNTTLPIRQTASIFKQPVTKVTNHPSNKVKSDPQRMNEQPRQLFWEKRLQGLSASDVTEQIIKTMELPKGLQGVGPGSNDETLLSAVASALHTSSAPITGQVSAAVEKNPAVWLNTSQPLCKAFIVTDEDIRKQEERVQQVRKKLEEALMADILSRAADTEEMDIEMDSGDEA
B10: CO-61 (HIP1R): serologically defined colon cancer antigen, protein SEQ ID NO:19 (protein, listed as Homo sapiens)
chain: MFDYMDCELKLSESVFRQLNTAIAVSQMSSGQCRLAPLIQVIQDCSHLYHYTVKLLFKLHSCLPADTLQGHRDRFHEQFHSLRNFFRRASDMLYFKRLIQIPRLPEGPPNFLRASALAEHIKPVVVIPEEAPEDEEPENLIEISTGPPAGEPVVVADLFDQTFGPPNGSVKDDRDLQIESLKREVEMLRSELEKIKLEAQRYIAQLKSQVNALEGELEEQRKQKQKALVDNEQLRHELAQLRAAQLEGERSQGLREEAERKASATEARYNKLKEKHSELVHVHAELLRKNADTAKQLTVTQQSQEEVARVKEQLAFQVEQVKRESELKLEEKSDQLEKLKRELEAKAGELARAQEALSHTEQSKSELSSRLDTLSAEKDALSGAVRQREADLLAAQSLVRETEAALSREQQRSSQEQGELQGRLAERESQEQGLRQRLLDEQFAVLRGAAAEAAGILQDAVSKLDDPLHLRCTSSPDYLVSRAQEALDAVSTLEEGHAQYLTSLADASALVAALTRFSHLAADTIINGGATSHLAPTDPADRLIDTCRECGARALELMGQLQDQQALRHMQASLVRTPLQGILQLGQELKPKSLDVRQEELGAVVDKEMAATSAAIEDAVRRIEDMMNQARHASSGVKLEVNERILNSCTDLMKAIRLLVTTSTSLQKEIVESGRGAATQQEFYAKNSRWTEGLISASKAVGWGATQLVEAADKVVLHTGKYEELIVCSHEIAASTAQLVAASKVKANKHSPHLSRLQECSRTVNERAANVVASTKSGQEQIEDRDTMDFSGLSLIKLKKQEMETQVRVLELEKTLEAERMRLGELRKQHYVLAGASGSPGEEVAIRPSTAPRSVTTKKPPLAQKPSVAPRQDHQLDKKDGIYPAQLVNY

Tested on: sera from colon cancer patients
Assay: Spot assay: reactivity of serologically defined colon cancer antigens with colon cancer patient sera
Assay type: binding, human
Settings: reactive sera/sera tested; includes autologous where applicable; sera 1:200
Procedure: Serum samples from patients with colon cancer were screened using a modification of the plaque assay, termed a spot assay. In this method, 80×120 mm nitrocellulose membranes were precoated with a film of NZY/0.7% Agarose/2.5 mM IPTG and placed on a reservoir layer of NZY/0.7% Agarose in a 86×128 mm Omni Tray (Nalge Nunc International Corp., Naperville, Ill.). Approximately 1.0×10^5 pfU of monoclonal phage encoding individual serologically defined colon cancer antigens, in a volume of 20 μl, were mixed with 20 μl of exponentially growing E. coli XL-1 Blue MRF and spotted (0.7-μl aliquots) on the precoated nitrocellulose membranes. Membranes were incubated for 15 hours at 37° C. A total of 75 different serologically defined colon cancer antigens were spotted in duplicate per nitrocellulose membrane. The agarose film was then removed from the membrane and the filters were processed for reactivity with individual serum samples (1:200 dilution), as described in Scanlan, et al., Int. J. Cancer 76:652-658 (1998) and Scanlan, et al., Int. J. Cancer 83:456-64, (1999).

Row | Molecule | Reactivity of individual antigens
1 | B1 | 3/75
2 | B2 | 4/75
3 | B3 | 4/76
4 | B4 | 3/76
5 | B5 | 6/75
6 | B6 | 2/76
7 | B7 | 2/75
8 | B8 | 7/76
9 | B9 | 3/76
10 | B10 | 5/75
